Consider six molecules from PMC3858276 (2013).

Where no end group is shown, it is not given here.

T1: phosphorylated SNAP-ADAP fusion protein (ADAP amino acids 570-690) (human, UniProt O15117 570-690, phosphotyrosine (in vitro phosphorylation by Fyn kinase, approx. 90% of each phosphorylation site; sites in Table S1); BG-647 dye on the SNAP-tag)
T1 chain: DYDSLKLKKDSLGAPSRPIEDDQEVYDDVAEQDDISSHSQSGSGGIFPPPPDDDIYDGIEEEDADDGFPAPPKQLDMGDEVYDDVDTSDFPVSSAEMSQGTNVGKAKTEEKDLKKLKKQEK

T2: Fyn SH2 domain without biotin (for MST) (UniProt P06241 149-246)
T2 chain: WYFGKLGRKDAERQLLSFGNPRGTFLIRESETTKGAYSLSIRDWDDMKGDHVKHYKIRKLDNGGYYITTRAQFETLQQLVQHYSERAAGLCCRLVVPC

B1: Lck SH2 domain without biotin (for MST) (domain or fragment)
chain: WFFKNLSRKDAERQLLAPGNTHGSFLIRESESTAGSFSLSVRDFDQNQGEVVKHYKIRNLDNGGFYISPRITFPGLHELVRHYTNASDGLCTRLSRPC
B2: SLP-76 SH2 domain without biotin (for MST) (domain or fragment)
chain: WYVSYITRPEAEAALRKINQDGTFLVRDSSKKTTTNPYVLMVLYKDKVYNIQIRYQKESQVYLLGTGLRGKEDFLSVSDIIDYFRKMPLLLIDGKNRGSRYQCTLTHAA
B3: RasaN (N-terminal SH2 domain of Rasa1) without biotin (for MST) (domain or fragment)
chain: WYHGKLDRTIAEERLRQAGKSGSYLIRESDRRPGSFVLSFLSQMNVVNHFRIIAMCGDYYIGGRRFSSLSDLIGYYSHVSCLLKGEKLLYPV
B4: phosphorylated SNAP-YEEI fusion (middle T antigen aa 315-331) (peptide)
chain: THQEEEEPQYEEIPIYL
modifications: not fully specified; also: tyrosine phosphorylation in vitro by Fyn, degree not placed
B5: Rasa1b (Rasa1 sequence 174-447) without biotin (for MST) (domain or fragment)
chain: TAPPTNQWYHGKLDRTIAEERLRQAGKSGSYLIRESDRRPGSFVLSFLSQMNVVNHFRIIAMCGDYYIGGRRFSSLSDLIGYYSHVSCLLKGEKLLYPVAPPEPVEDRRRVRAILPYTKVPDTDEISFLKGDMFIVHNELEDGWMWVTNLRTDEQGLIVEDLVEEVGREEDPHEGKIWFHGKISKQEAYNLLMTVGQVCSFLVRPSDNTPGDYSLYFRTNENIQRFKICPTPNNQFMMGGRYYNSIGDIIDHYRKEQIVEGYYLKEPVPMQDQE
B6: SH2D1A without biotin (for MST) (natural protein)
chain: MDAVAVYHGKISRETGEKLLLATGLDGSYLLRDSESVPGVYCLCVLYHGYIYTYRVSQTETGSWSAETAPGVHKRYFRKIKNLISAFQKPDQGIVIPLQYPVEKKSSARSTQGTTGIREDPDVCLKAP

What all share (assay): MST
The target in assay [1] is T1, phosphorylated SNAP-ADAP fusion protein ….
Assay [2] concerns the target T2, Fyn SH2 domain without biotin (for MST).
In assay [3] the target is B3.
For assay [4], the target named is B5.
Assay [5] deals with B6.
Assay [6] concerns the target B1.

Molecule B1 gave a Kd in assay [1] of 1300 nM.

The molecule B2 had a Kd in assay [1] of 457 nM.

For B3, in assay [1], the affinity, expressed as Kd, was 142 nM.

On to B4, for which the Kd is 430 nM in assay [2]; 128 nM in assay [3]; 189 nM in assay [4]; 2340 nM in assay [5]; 595 nM in assay [6].

With B5, in assay [1], the Kd is 152 nM.

As to B6, in assay [1], the Kd worked out at 5730 nM.
